Literature values in PMC3413316.

How the values were obtained:
[1] = target: Activated protein C (Homo sapiens) (UniProt P04070)
[2] = target: Protein C (Homo sapiens) (UniProt P04070)
Sequence of Protein C (Homo sapiens) (P04070 43-197): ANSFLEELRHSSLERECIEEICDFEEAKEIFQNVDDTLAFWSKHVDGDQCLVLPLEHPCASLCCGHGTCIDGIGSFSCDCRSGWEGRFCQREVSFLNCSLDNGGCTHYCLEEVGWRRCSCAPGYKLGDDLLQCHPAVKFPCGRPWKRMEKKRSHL

Sequence of EPCR (Q9UNN8 18-210): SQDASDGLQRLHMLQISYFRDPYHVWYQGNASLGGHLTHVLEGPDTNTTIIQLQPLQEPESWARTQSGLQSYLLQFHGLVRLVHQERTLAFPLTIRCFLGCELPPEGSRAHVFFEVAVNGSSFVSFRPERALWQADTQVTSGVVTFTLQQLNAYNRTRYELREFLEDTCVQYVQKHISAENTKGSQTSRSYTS
Sequence of Activated protein C (Homo sapiens) (P04070 43-197, chain 1 of 2): as the sequence (P04070 43-197) above
Sequence of Activated protein C (Homo sapiens) (P04070 212-461, chain 2 of 2): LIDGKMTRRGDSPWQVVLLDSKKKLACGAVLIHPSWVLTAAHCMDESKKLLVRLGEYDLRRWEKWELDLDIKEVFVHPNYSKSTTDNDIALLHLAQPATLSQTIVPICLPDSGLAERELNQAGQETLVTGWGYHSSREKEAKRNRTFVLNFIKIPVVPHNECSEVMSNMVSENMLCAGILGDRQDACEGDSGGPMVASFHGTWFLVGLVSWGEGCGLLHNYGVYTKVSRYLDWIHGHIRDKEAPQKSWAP

Kd [1]: 60 nM | Kd [2]: 60 nM
Substance: EPCR (from UniProt Q9UNN8)
